Results on eleven molecules are retold here after EP3757216B1.

B1: FcγRIIa-m11 (receptor)
chain: MGQAAAPPKAVLKLEPPWTNVLQEDSVTLTCQGARSPESDSVLWFHNGNLIPTQTQLTYRFKATSNDSGEYTCQTGQTSLSDPVHLTVLSEWLVLQPPRLEFQEGETIMLRCHSWKDKPLVKVTFFQNGKSQKFSHLDPTFSIPQANHSHSGDYHCTGNIGYTSFSSKPVTITVQGGHHHHHH
B2: FcγRIIa-m10B (receptor)
chain: MGQAAAPPKAVLKLEPPWTNVLQEDSVTLTCQGARSPESDSVQWFHNGNLIPTQTQLTYRFKATSNDSGEYTCQTGQTSLSDPVHLTVLSEWLVLQPPRLEFQEGETIMLRCHSWKDKPLVKVTFFQNGKSQKFSHLDPTFSIPQANHSHSGDYHCTGNIGYTSFSSKPVTITVQGGHHHHHH
B3: FcγRIIa-m10A (receptor)
chain: MGQAAAPPKAVLKLEPPWTNVLQEDSVTLTCQGARSPESDSVLWFHNGNLIPTQTQPTYRFKATSNDSGEYTCQTGQTSLSDPVHLTVLSEWLVLQPPRLEFQEGETIMLRCHSWKDKPLVKVTFFQNGKSQKFSHLDPTFSIPQANHSHSGDYHCTGNIGYTSFSSKPVTITVQGGHHHHHH
B4: FcγRIIa-m10C (receptor)
chain: MGQAAAPPKAVLKLEPPWINVLQEDSVTLTCQGARSPESDSVLWFHNGNLIPTQTQLTYRFKATSNDSGEYTCQTGQTSLSDPVHLTVLSEWLVLQPPRLEFQEGETIMLRCHSWKDKPLVKVTFFQNGKSQKFSHLDPTFSIPQANHSHSGDYHCTGNIGYTSFSSKPVTITVQGGHHHHHH
B5: FcγRIIa-m11-Del1 (receptor)
chain: MGQAAAPPKAVLKLEPPWTNVLQEDSVTLTCQGARPESDSVLWFHNGNLIPTQTQLTYRFKATSNDSGEYTCQTGQTSLSDPVHLTVLSEWLVLQPPRLEFQEGETIMLRCHSWKDKPLVKVTFFQNGKSQKFSHLDPTFSIPQANHSHSGDYHCTGNIGYTSFSSKPVTITVQGGHHHHHH
B6: FcγRIIa-m11-Del2 (receptor)
chain: MGQAAAPPKAVLKLEPPWTNVLQEDSVTLTCQGARPSDSVLWFHNGNLIPTQTQLTYRFKATSNDSGEYTCQTGQTSLSDPVHLTVLSEWLVLQPPRLEFQEGETIMLRCHSWKDKPLVKVTFFQNGKSQKFSHLDPTFSIPQANHSHSGDYHCTGNIGYTSFSSKPVTITVQGGHHHHHH
B7: FcγRIIa-m11-Del5 (receptor)
chain: MGQAAAPPKAVLKLEPPWTNVLQEDSVTLTCQGADSVLWFHNGNLIPTQTQLTYRFKATSNDSGEYTCQTGQTSLSDPVHLTVLSEWLVLQPPRLEFQEGETIMLRCHSWKDKPLVKVTFFQNGKSQKFSHLDPTFSIPQANHSHSGDYHCTGNIGYTSFSSKPVTITVQGGHHHHHH
B8: FcγRIIa-m11-Del7 (receptor)
chain: MGQAAAPPKAVLKLEPPWTNVLQEDSVTLTCQDSVLWFHNGNLIPTQTQLTYRFKATSNDSGEYTCQTGQTSLSDPVHLTVLSEWLVLQPPRLEFQEGETIMLRCHSWKDKPLVKVTFFQNGKSQKFSHLDPTFSIPQANHSHSGDYHCTGNIGYTSFSSKPVTITVQGGHHHHHH
B9: FcγRIIa-m11-Del6 (receptor)
chain: MGQAAAPPKAVLKLEPPWTNVLQEDSVTLTCQGDSVLWFHNGNLIPTQTQLTYRFKATSNDSGEYTCQTGQTSLSDPVHLTVLSEWLVLQPPRLEFQEGETIMLRCHSWKDKPLVKVTFFQNGKSQKFSHLDPTFSIPQANHSHSGDYHCTGNIGYTSFSSKPVTITVQGGHHHHHH
B10: FcγRIIa-m11-Del4 (receptor)
chain: MGQAAAPPKAVLKLEPPWTNVLQEDSVTLTCQGASDSVLWFHNGNLIPTQTQLTYRFKATSNDSGEYTCQTGQTSLSDPVHLTVLSEWLVLQPPRLEFQEGETIMLRCHSWKDKPLVKVTFFQNGKSQKFSHLDPTFSIPQANHSHSGDYHCTGNIGYTSFSSKPVTITVQGGHHHHHH
B11: FcγRIIa-m11-Del3 (receptor)
chain: MGQAAAPPKAVLKLEPPWTNVLQEDSVTLTCQGARSDSVLWFHNGNLIPTQTQLTYRFKATSNDSGEYTCQTGQTSLSDPVHLTVLSEWLVLQPPRLEFQEGETIMLRCHSWKDKPLVKVTFFQNGKSQKFSHLDPTFSIPQANHSHSGDYHCTGNIGYTSFSSKPVTITVQGGHHHHHH

The target of the first assay is gamma-globulin preparation (The Chemo-Sero-Therapeutic Research Institute), a human antibody (human). In words: ELISA on immobilised human gamma-globulin, anti-6His detection; antibody binding activity after acid treatment (pH 3.0, 24 h, 30 C) divided by that without treatment. (In general: In an ELISA, binding on a coated surface is turned into a signal by an enzyme label.)
The molecule B1 displayed an RESIDUAL ACTIVITY [%] of 95.3%.
The same measure, in the same setting: in the case of B2 it was 46.9%; in that of B3, 77.3%.
Still for that read-out and setting: in the case of B4 it was 72.9%.

The target is the same in another assay. In words: ELISA on immobilised human gamma-globulin, anti-6His detection; antibody binding activity after acid treatment (pH 3.0, 72 h, 30 C) divided by that without treatment.
B5 had an RESIDUAL ACTIVITY [%] of 89.8%.
The same measure, in the same setting: as for B6, the figure is 81.3%; as for B7, 86.5%; as for B8, 33.3%.
On the same count and under the same terms, as for B9, the figure is 25.4%.
Same read-out and setting: in the case of B10 it was 76.7%.
For B11, the RESIDUAL ACTIVITY [%] was 72.4%.
The same measure, in the same setting: as for B1, the figure is 83.6%.
